Assay results as given in IntAct's records for PubMed 16407977.

B1: Transient receptor potential cation channel subfamily M member 7 (Mus musculus), Q923J1 (parent)
chain: MSQKSWIESTLTKRECVYIIPSSKDPHRCLPGCQICQQLVRCFCGRLVKQHACFTASLAMKYSDVKLGEHFNQAIEEWSVEKHTEQSPTDAYGVINFQGGSHSYRAKYVRLSYDTKPEIILQLLLKEWQMELPKLVISVHGGMQKFELHPRIKQLLGKGLIKAAVTTGAWILTGGVNTGVAKHVGDALKEHASRSSRKICTIGIAPWGVIENRNDLVGRDVVAPYQTLLNPLSKLNVLNNLHSHFILVDDGTVGKYGAEVRLRRELEKTINQQRIHARIGQGVPVVALIFEGGPNVILTVLEYLQESPPVPVVVCEGTGRAADLLAYIHKQTEEGGNLPDAAEPDIISTIKKTFNFGQSEAVHLFQTMMECMKKKELITVFHIGSEDHQDIDVAILTALLKGTNASAFDQLILTLAWDRVDIAKNHVFVYGQQWLVGSLEQAMLDALVMDRVSFVKLLIENGVSMHKFLTIPRLEELYNTKQGPTNPMLFHLIRDVKQGNLPPGYKITLIDIGLVIEYLMGGTYRCTYTRKRFRLIYNSLGGNNRRSGRNTSSSTPQLRKSHETFGNRADKKEKMRHNHFIKTAQPYRPKMDASMEEGKKKRTKDEIVDIDDPETKRFPYPLNELLIWACLMKRQVMARFLWQHGEESMAKALVACKIYRSMAYEAKQSDLVDDTSEELKQYSNDFGQLAVELLEQSFRQDETMAMKLLTYELKNWSNSTCLKLAVSSRLRPFVAHTCTQMLLSDMWMGRLNMRKNSWYKVILSILVPPAILMLEYKTKAEMSHIPQSQDAHQMTMEDSENNFHNITEEIPMEVFKEVKILDSSDGKNEMEIHIKSKKLPITRKFYAFYHAPIVKFWFNTLAYLGFLMLYTFVVLVKMEQLPSVQEWIVIAYIFTYAIEKVREVFMSEAGKISQKIKVWFSDYFNVSDTIAIISFFVGFGLRFGAKWNYINAYDNHVFVAGRLIYCLNIIFWYVRLLDFLAVNQQAGPYVMMIGKMVANMFYIVVIMALVLLSFGVPRKAILYPHEEPSWSLAKDIVFHPYWMIFGEVYAYEIDVCANDSTLPTICGPGTWLTPFLQAVYLFVQYIIMVNLLIAFFNNVYLQVKAISNIVWKYQRYHFIMAYHEKPVLPPPLIILSHIVSLFCCVCKRRKKDKTSDGPKLFLTEEDQKKLHDFEEQCVEMYFDEKDDKFNSGSEERIRVTFERVEQMSIQIKEVGDRVNYIKRSLQSLDSQIGHLQDLSALTVDTLKTLTAQKASEASKVHNEITRELSISKHLAQNLIDDVPVRPLWKKPSAVNTLSSSLPQGDRESNNPFLCNIFMKDEKDPQYNLFGQDLPVIPQRKEFNIPEAGSSCGALFPSAVSPPELRQRRHGVEMLKIFNKNQKLGSSPNSSPHMSSPPTKFSVSTPSQPSCKSHLESTTKDQEPIFYKAAEGDNIEFGAFVGHRDSMDLQRFKETSNKIRELLSNDTPENTLKHVGAAGYSECCKTSTSLHSVQAESCSRRASTEDSPEVDSKAALLPDWLRDRPSNREMPSEGGTLNGLASPFKPVLDTNYYYSAVERNNLMRLSQSIPFVPVPPRGEPVTVYRLEESSPSILNNSMSSWSQLGLCAKIEFLSKEEMGGGLRRAVKVLCTWSEHDILKSGHLYIIKSFLPEVINTWSSIYKEDTVLHLCLREIQQQRAAQKLTFAFNQMKPKSIPYSPRFLEVFLLYCHSAGQWFAVEECMTGEFRKYNNNNGDEIIPTNTLEEIMLAFSHWTYEYTRGELLVLDLQGVGENLTDPSVIKAEEKRSCDMVFGPANLGEDAIKNFRAKHHCNSCCRKLKLPDLKRNDYTPDKIIFPQDESSDLNLQSGNSTKESEATNSVRLML

Variants of: B1
Conditions: with myh9_mouse Myh9, Q8VDD5
Chain of myh9_mouse Myh9, Q8VDD5 (Q8VDD5 whole entry): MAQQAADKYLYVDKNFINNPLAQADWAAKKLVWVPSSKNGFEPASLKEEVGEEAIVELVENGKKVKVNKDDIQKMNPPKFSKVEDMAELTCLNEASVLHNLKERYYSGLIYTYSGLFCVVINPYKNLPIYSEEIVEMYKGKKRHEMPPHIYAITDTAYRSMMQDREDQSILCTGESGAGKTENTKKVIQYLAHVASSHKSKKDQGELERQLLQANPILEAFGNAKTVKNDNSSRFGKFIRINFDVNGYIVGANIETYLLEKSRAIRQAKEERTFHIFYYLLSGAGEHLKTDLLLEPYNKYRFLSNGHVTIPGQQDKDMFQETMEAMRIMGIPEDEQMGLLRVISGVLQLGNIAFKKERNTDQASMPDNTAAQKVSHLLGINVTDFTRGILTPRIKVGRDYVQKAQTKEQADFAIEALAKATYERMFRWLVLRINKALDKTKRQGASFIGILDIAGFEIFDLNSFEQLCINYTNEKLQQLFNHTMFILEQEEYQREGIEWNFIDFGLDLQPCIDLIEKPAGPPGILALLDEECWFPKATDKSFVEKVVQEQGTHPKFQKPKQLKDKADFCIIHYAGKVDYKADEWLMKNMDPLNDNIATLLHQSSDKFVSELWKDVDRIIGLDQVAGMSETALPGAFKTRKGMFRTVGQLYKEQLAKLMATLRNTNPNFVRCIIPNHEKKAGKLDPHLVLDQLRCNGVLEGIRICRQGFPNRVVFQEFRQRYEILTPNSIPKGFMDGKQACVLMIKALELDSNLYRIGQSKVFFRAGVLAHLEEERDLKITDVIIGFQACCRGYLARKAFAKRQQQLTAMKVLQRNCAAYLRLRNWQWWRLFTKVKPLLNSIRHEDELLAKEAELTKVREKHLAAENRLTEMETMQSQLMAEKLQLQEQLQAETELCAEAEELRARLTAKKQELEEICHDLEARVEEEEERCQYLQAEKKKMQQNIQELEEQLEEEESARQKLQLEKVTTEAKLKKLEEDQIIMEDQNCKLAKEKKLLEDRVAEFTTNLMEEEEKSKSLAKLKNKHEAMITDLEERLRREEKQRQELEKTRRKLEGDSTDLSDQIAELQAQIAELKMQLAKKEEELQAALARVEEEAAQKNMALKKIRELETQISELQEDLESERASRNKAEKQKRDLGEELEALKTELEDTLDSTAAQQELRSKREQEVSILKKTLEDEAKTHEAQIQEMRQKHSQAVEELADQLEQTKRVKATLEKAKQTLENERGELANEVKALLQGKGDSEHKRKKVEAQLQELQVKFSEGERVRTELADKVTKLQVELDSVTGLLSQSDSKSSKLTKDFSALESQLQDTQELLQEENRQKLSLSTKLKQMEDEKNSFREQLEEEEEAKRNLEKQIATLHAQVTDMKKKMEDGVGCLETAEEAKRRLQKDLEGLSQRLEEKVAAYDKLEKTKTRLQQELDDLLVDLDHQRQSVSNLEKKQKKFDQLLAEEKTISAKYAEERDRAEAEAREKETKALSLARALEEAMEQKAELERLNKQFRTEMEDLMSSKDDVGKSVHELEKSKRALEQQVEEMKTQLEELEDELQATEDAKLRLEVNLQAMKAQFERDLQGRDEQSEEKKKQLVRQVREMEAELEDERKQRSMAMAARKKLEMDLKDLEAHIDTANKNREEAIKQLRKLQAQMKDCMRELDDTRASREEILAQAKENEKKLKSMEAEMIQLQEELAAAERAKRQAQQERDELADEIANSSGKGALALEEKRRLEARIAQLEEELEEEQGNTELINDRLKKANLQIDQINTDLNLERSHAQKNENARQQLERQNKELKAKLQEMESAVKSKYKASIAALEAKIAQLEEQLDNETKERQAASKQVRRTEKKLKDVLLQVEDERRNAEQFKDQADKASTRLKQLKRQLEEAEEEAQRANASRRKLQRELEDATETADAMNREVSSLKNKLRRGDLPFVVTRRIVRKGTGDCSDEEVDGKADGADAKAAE

| effect of a mutation on the interaction | Variant |
| --- | --- |
| decreasing interaction | D1775A |
